Data taken from patent US20190071714, “[…] FOR CLOSTRIDIUM […] DETECTION” (McMaster University, published 2019).
Like-named read-outs stand apart in the source and are kept apart here.

Columns and labels:
[1] = target: T1, rGDH (recombinant glutamate dehydrogenase) (Clostridium difficile, UniProt P27346 SEQ:1-421); experiment: pulldown; […]; PBS pH 7.6, room temperature; conditions: tags: C-terminal His6; expressed in E. coli; Pro-Lab Diagnostics
T1 sequence: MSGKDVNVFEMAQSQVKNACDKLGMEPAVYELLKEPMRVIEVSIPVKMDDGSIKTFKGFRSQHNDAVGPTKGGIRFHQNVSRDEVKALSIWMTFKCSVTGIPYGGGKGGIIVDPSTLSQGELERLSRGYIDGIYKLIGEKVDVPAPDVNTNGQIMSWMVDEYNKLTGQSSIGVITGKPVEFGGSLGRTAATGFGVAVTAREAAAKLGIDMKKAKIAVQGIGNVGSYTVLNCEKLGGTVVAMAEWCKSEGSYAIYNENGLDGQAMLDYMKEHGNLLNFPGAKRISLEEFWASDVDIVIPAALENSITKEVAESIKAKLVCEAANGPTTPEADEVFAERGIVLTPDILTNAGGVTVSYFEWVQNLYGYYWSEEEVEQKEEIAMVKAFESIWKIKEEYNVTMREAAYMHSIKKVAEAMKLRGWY

[2] = target: T1, rGDH (recombinant glutamate …); experiment: pulldown; 20 nM DNA, rGDH beads; conditions: tags: C-terminal His6; expressed in E. coli; Pro-Lab Diagnostics
[3] = target: T1, rGDH (recombinant glutamate …); experiment: pulldown; conditions: tags: C-terminal His6; expressed in E. coli; Pro-Lab Diagnostics
[4] = target: T2, thrombin (Homo sapiens, UniProt P00734;P00734 P00734:328-363,P00734:364-622); experiment: EMSA
[5] = target: T1, rGDH (recombinant glutamate …); experiment: EMSA; […]; 1x PBS, 150 mM NaCl, 0.02% Tween-20, pH 7.6; […]; conditions: tags: C-terminal His6; expressed in E. coli; Pro-Lab Diagnostics
[6] = target: T3, BSA (UniProt P02769 P02769:25-607); experiment: EMSA; 10 nM protein; conditions: tags: Sigma
T3 sequence (P02769 25-607, one chain of several): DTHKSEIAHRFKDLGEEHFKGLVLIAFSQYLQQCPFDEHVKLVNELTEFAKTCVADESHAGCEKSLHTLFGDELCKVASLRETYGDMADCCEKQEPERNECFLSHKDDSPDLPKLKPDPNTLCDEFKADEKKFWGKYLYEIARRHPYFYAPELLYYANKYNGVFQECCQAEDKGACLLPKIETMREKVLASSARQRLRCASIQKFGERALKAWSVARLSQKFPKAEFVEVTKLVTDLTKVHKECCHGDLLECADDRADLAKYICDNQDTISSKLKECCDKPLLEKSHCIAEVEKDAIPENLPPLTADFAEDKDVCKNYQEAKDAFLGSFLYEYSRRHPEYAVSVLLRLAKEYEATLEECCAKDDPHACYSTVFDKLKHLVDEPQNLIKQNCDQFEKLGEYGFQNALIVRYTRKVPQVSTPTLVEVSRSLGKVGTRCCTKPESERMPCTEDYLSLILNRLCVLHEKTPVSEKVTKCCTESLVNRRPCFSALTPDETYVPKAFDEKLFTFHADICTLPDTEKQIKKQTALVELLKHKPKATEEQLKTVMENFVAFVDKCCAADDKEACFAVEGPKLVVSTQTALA
Description: The truncated aptamer, anti-GDH-T1, was then radioactively labeled at the 5′ end and tested for binding to the rGDH target by EMSA assays.^{39,40} A typical image of an EMSA result is shown in FIG. 3A. It was observed that the electrophoretic mobility of the protein-aptamer complex was typically less than that of the free aptamer. The fractional saturation of bound aptamer was calculated as a function of rGDH concentration (FIG. 3B). […] The specificity was also tested by EMSA. No obvious band was observed when using proteins such as BSA, thrombin and IgG (FIG. 8).
Binding reactions were performed in 20 μL of 1× binding buffer containing 3 nM 32P-labeled anti-GDH1-T1 aptamer and various concentrations of rGDH (0 to 1000 nM). After incubation for 30 min, the reaction mixtures were spiked with 6× loading buffer, and then loaded into the wells of a nondenaturing polyacrylamide gel (8%) at 4° C. Visualization of DNA bands was done using a Typhoon 9200 imager and the resulting bands were quantified with ImageQuant software.

[7] = target: T2, thrombin
[8] = target: TcdB (toxin B) (Clostridium difficile, UniProt P18177 SEQ:2-2366)
[9] = target: TcdA (toxin A) (Clostridium difficile, UniProt P16154 SEQ:1-2710)
TcdA (toxin A), sequence (P16154 whole entry): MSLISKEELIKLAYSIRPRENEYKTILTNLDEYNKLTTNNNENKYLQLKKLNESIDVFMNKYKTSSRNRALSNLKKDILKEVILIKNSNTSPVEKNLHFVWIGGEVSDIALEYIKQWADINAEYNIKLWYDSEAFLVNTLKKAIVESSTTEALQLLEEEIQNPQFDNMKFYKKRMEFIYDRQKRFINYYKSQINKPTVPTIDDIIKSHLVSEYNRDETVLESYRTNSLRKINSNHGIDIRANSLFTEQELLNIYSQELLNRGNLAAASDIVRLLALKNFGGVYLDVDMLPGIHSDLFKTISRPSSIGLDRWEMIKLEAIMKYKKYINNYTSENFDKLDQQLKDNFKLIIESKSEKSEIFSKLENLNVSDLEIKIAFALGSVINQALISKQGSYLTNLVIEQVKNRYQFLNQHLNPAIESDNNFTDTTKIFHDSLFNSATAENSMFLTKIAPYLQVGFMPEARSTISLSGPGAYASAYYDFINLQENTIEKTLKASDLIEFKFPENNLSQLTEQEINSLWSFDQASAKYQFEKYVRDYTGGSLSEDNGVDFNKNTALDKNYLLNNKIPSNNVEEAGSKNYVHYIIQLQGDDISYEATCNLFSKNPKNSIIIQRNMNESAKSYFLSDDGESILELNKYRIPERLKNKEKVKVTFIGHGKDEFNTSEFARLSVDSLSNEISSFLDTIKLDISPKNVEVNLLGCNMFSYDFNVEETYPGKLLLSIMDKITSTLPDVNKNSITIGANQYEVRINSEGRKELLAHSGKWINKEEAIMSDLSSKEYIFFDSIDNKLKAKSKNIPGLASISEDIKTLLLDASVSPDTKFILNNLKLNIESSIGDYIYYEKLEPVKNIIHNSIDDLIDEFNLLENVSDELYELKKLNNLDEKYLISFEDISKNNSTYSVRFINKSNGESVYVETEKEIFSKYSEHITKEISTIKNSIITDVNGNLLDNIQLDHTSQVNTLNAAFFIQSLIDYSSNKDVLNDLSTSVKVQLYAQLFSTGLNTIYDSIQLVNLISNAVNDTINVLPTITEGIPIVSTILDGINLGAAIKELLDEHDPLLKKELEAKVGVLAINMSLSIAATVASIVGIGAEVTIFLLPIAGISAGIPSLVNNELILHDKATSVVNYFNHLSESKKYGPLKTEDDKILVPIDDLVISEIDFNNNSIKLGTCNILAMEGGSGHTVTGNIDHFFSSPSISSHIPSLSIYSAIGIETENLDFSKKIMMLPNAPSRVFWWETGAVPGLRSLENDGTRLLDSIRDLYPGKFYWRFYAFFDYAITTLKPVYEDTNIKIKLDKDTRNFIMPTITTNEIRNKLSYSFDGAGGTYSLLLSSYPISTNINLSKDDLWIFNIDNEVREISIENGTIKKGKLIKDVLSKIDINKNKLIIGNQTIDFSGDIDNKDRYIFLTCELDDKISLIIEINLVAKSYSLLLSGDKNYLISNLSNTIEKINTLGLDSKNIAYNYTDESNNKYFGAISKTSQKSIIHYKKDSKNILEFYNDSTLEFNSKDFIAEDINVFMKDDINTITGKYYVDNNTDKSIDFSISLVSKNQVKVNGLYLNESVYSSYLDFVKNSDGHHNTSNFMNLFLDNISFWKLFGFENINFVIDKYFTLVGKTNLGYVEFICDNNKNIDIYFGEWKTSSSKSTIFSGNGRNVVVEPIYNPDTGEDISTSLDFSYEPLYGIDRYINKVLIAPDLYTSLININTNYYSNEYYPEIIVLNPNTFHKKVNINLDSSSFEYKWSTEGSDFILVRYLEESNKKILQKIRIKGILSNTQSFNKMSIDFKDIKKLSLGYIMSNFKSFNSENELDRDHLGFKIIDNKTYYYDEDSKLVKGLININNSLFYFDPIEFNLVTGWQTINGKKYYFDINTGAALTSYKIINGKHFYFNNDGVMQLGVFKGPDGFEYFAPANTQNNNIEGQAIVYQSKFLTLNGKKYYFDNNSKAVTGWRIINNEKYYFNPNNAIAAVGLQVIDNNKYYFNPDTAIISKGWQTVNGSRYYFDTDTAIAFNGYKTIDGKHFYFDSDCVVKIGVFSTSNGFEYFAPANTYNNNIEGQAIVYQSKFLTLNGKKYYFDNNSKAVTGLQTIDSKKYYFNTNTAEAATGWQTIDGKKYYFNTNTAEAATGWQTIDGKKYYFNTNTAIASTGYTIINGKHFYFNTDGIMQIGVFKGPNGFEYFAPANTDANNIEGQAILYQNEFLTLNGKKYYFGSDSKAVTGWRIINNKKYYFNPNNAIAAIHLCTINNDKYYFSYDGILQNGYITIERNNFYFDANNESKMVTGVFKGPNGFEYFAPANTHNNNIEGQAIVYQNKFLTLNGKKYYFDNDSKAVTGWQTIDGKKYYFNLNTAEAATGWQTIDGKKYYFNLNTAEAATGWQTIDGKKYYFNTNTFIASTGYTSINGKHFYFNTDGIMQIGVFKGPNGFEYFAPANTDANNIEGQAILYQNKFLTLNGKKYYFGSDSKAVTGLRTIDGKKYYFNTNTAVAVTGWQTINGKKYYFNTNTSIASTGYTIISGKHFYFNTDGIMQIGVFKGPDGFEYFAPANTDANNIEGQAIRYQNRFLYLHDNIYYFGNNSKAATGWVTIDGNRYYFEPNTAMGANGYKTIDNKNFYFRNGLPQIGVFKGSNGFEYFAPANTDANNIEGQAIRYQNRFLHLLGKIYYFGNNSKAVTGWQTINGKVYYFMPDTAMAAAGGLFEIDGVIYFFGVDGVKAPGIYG

[10] = target: T3, BSA; experiment: RGO fluorescence sensor, 300 nM protein, no significant response; conditions: tags: Sigma
Description: The detection limit (defined as 3σ/slope, with a being the standard deviation of the blank samples) of the sensor was determined to be 1 nM (FIG. 5A). The selectivity of the aptamer-graphene biosensing system was also evaluated by using non-target proteins (BSA, thrombin, IgG, TcdA and TcdB).
In a typical assay, 20 μL of 5× binding buffer (5×PBS, containing 750 mM NaCl and 0.1% Tween-20, pH 7.6), 2 μL of FAM-labeled (5′ end) aptamer probe (7 μM), 30 μL of RGO solution (100 μg/mL) and 48 μL of water were first mixed and incubated in a micro-centrifuge tube for 30 min. Then, 10 μL of 1% BSA was added to block the surface. After incubating for 20 min, 5 μL of nGDH with different dilutions was added to the mixture and time-dependent fluorescence emission measurements were performed at λₑₓ/λₑₘ=494/518 nm. The emission intensity obtained at a reaction time of 60 min was plotted against nGDH concentration to obtain a limit of detection. A similar experiment was carried out using non-target proteins (BSA, human thrombin, human IgG, TcdA and TcdB from C. difficile) to evaluate aptamer selectivity.

[11] = target: T1, rGDH (recombinant glutamate …); experiment: pulldown; 20 nM DNA, rGDH beads; decreased; conditions: tags: C-terminal His6; expressed in E. coli; Pro-Lab Diagnostics
[12] = target: T1, rGDH (recombinant glutamate …); experiment: pulldown; […]; 1x PBS, 150 mM NaCl, 0.02% Tween-20, pH 7.6, room temperature; conditions: tags: C-terminal His6; expressed in E. coli; Pro-Lab Diagnostics

B1: anti-G7 (anti-GDH7) (ssDNA)
DNA: CAGGTCCATCGAGTGGTAGGACCCAACCCACGATGCGCAAGAGGAATGCAGCCTACCAGCATCGCACTGCTCCTGAACGTAC
Kd [1]: 4.6 nM

B2: anti-G1-T7 (ssDNA)
DNA: TAGTGCCAAGCCATCTCAAACGACGTCTGAGTCGCACTG
binding result [2]: no binding

B3: anti-G1-T4 (ssDNA)
DNA: AGGTATTTAGTGCCAAGCCATCTCAAACGACGTCTGAGTCGCACTGCT
binding result [3]: binds

B4: anti-G1-T6 (ssDNA)
DNA: AGCCATCTCAAACGACGTCTGAGTCGCA
binding result [2]: no binding

B5: anti-G1-T8 (ssDNA)
DNA: AGGTATTTAGTGCCAAGCCATCGTCGCACTGCTCCTG
binding result [2]: no binding

B6: anti-G1-T1 (ssDNA)
DNA: TAGGAGGAGGTATTTAGTGCCAAGCCATCTCAAACGACGTCTGAGTCGCACTGCTCCTG
binding result [4]: no binding | Kd [5]: 4.5 nM | binding result [6]: no binding

B7: FAM-anti-GDH1-T1 (ssDNA)
DNA: TAGGAGGAGGTATTTAGTGCCAAGCCATCTCAAACGACGTCTGAGTCGCACTGCTCCTG
binding result [7]: no binding | binding result [8]: no binding | binding result [9]: no binding | binding result [10]: no binding

B8: anti-G1-T3 (ssDNA)
DNA: AGGTATTTAGTGCCAAGCCATCTCAAACGACGTCTGAGTCGCACTGCTCCTG
binding result [11]: binds

B9: anti-G1 (anti-GDH1) (ssDNA)
DNA: CAGGTCCATCGAGTGGTAGGAGGAGGTATTTAGTGCCAAGCCATCTCAAACGACGTCTGAGTCGCACTGCTCCTGAACGTAC
Kd [12]: 3.1 nM

B10: anti-G3 (anti-GDH3) (ssDNA)
DNA: CAGGTCCATCGAGTGGTAGGATGCAGCGGACAGTGTGGGACCATCGCTGCGGATGTATGAATCGCACTGCTCCTGAACGTAC
Kd [1]: 5.6 nM
